For the experiment, the target named is murine CTLA-4 fused to CD3ζ, expressed on the murine T-cell hybridoma 58α-β-CTLA-4/CD3ζ (murine) (UniProt P09793). Briefly: flow cytometry on 58α-β-CTLA-4/CD3ζ cells, R-PE donkey anti-mouse IgG secondary antibody, MFI. Background: A flow cytometer gives signals particle by particle.

Chain of mouse anti-mouse CTLA-4 antibody 9D9, mouse IgG1 isotype (light): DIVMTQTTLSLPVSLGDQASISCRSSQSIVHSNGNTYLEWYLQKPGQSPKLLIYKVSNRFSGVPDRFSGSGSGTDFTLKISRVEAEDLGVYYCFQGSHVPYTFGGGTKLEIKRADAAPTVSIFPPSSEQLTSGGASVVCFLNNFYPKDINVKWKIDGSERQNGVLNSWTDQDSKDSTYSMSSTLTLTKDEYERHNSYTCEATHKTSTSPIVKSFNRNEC
Chain of mouse anti-mouse CTLA-4 antibody 9D9, mouse IgG1 isotype (heavy): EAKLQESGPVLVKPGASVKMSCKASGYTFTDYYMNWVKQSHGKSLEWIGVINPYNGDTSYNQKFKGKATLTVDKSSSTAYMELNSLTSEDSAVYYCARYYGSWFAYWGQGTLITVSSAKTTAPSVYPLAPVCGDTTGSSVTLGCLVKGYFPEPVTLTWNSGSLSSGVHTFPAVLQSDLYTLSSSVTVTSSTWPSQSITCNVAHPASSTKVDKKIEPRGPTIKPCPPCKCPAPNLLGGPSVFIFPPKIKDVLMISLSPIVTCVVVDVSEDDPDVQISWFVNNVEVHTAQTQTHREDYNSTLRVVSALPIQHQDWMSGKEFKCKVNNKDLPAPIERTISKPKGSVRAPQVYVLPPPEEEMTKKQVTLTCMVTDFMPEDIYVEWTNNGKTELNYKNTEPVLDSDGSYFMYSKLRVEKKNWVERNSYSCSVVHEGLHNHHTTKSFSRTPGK
Chain of mouse anti-mouse CTLA-4 antibody 9D9, mouse IgG2a isotype (light): as the sequence (light) above
Chain of mouse anti-mouse CTLA-4 antibody 9D9, mouse IgG2a isotype (heavy): as the sequence (heavy) above
Chain of mouse anti-mouse CTLA-4 antibody 9D9, mouse IgG2b isotype (original isotype, derived from the hybridoma) (light): as the sequence (light) above
Chain of mouse anti-mouse CTLA-4 antibody 9D9, mouse IgG2b isotype (original isotype, derived from the hybridoma) (heavy): as the sequence (heavy) above

With “mouse anti-mouse CTLA-4 antibody 9D9, mouse IgG2a isotype”, the EC50 (read off the curve) worked out at 0.7 µg/mL.

Take “mouse anti-mouse CTLA-4 antibody 9D9, mouse IgG1 isotype”: the concentration giving a half-maximal response (EC50 (read off the curve)) turned out to be 0.6 µg/mL.

For the substance “mouse anti-mouse CTLA-4 antibody 9D9, mouse IgG2b isotype (original isotype, derived from the hybridoma)”, the 50% effective concentration (EC50 (read off the curve)) turned out to be 0.4 µg/mL.

Turning to “mouse anti-mouse CTLA-4 antibody 9D9, mouse IgG1 isotype containing a D265A mutation (from UniProt P01868 1-324)”, the EC50 (read off the curve) was 0.2 µg/mL.

Usually EC50 (read off the curve) stands for the concentration needed to bring the measured effect to its halfway point.
